# In patent publication US10258699B2, “Angiopep and derivatives thereof for imaging amyloids” (University Of Science And Technology Of China, priority 2014, dated 2019):
# Key:
# Aβ1-42 aggregates = Aβ1-42 aggregates (Homo sapiens, UniProt P05067); test: biochemical
# Method: Dissolving Aβ1-42 solid in PBS (PH 7.4) at a concentration of 0.25 mg/ml (55.38 uM), incubating in 37° C. water bath on a shaker for 42 h.
# Preparing solutions (containing 10% DMF), containing the conjugate formed by angiopep-2 and FITC (10 uM) as well as Aβ1-42 aggregates (0, 5, 10 uM) or BSA (45 ug/mL), respectively; incubating the mixture solution at 37° C. for 30 minutes.
# Preparing solutions (containing 10% DMF), containing the conjugate formed by angiopep-2 and FITC (0-3.75 uM) as well as Aβ1-42 aggregates (2.2 uM) or BSA (10 uM), respectively, incubating the mixture solution at 37° C. for 30 minutes.
# Detecting the mixture solutions prepared above for their emission spectrum with fluorescence spectrophotometer, emission wavelength: 333 nm, maximum emission wavelength: 531 nm, in the range of 500-600 nm.
# Plotting by using GraphPad Prism 5.0 (GraphPad Software, Inc., La Jolla, Calif., USA) and calculating equilibrium dissociation constant.
# [1] = system: APP transgenic mice's brains; test: In vivo near-infrared imaging of APP transgenic mouse after intravenous injection; conditions: 13 mg/kg intravenous injection
# Method: (§1) Optical in vivo imaging study was performed on IVIS imaging system, an optical imaging system from Caliper Life Sciences for imaging living body with an excitation filter set as Cy5.5, and emission spectrum band-pass filter as 640 nm. Before imaging, the mice were anaesthetized with a mixture gas of isoflurane and oxygen, and placed on an imaging plate with its face downward. White light photography (exposure time: 0.2 s) and near-infrared fluorescent imaging (exposure time: 5 s) were performed under the same field of vision (FOV) (FOV=12.5 cm, f/stop=1, Bin=1) at time points including before injection and several selected time points after intravenous injection. Each mouse received an injection dose of 13 mg/kg. White light photographs and near-infrared fluorescent images were superimposed to determine the size of intracranial portion. Finally, the imaging views were processed by using Living Image Software (Caliper Life Sciences).
# [2] = system: amyloid deposits in APP transgenic mouse brain; test: Fluorescent microscopy of APP transgenic mouse's brain sections after intravenous injection of the Cy5.5 conjugate; assay type: in vivo; conditions: 13 mg/kg intravenous, brain removed after 30 minutes
# Method: 30 minutes after intravenous administration (13 mg/kg), the mice were sacrificed, and then their brains were removed and frozen in liquid nitrogen. […] The brain was cut into sections of about 25 m in thickness using a frozen tissue microtome (Lecia CM1950). The sections were then placed on a fluorescent microscope (IX8, OLYMPUS) for observation and photography.
# [3] = system: APP transgenic mice's brains; conditions: mouse, in vivo
# Method: as §1
# Chain of Aβ1-42 aggregates (P05067 672-713 limits assumed): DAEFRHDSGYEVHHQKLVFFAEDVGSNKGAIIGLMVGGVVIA
# Chain of amyloid deposits in APP transgenic mouse brain (P05067 672-711 limits assumed): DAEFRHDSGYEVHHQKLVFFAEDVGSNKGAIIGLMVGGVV
Compound,Kd (Aβ1-42 aggregates),passing through BBB and aggregation in brain in vivo ([1]; APP transgenic mice),labeling of amyloid deposits in brain in vivo [2],time after which cleared from brain [3],aggregation in brain (near-infrared imaging) ([1]; APP mice)
C[C@@H](O)[C@H](NC(=O)CCCCCNC(=S)Nc1ccc2c(c1)C(=O)OC21c2ccc(O)cc2Oc2cc(O)ccc21)C(=O)N[C@@H](Cc1ccccc1)C(=O)N[C@@H](Cc1ccccc1)C(=O)N[C@@H](Cc1ccc(O)cc1)C(=O)NCC(=O)NCC(=O)N[C@@H](CO)C(=O)N[C@@H](CCCNC(=N)N)C(=O)NCC(=O)N[C@@H](CCCCN)C(=O)N[C@@H](CCCNC(=N)N)C(=O)N[C@@H](CC(N)=O)C(=O)N[C@@H](CC(N)=O)C(=O)N[C@@H](Cc1ccccc1)C(=O)N[C@@H](CCCCN)C(=O)N[C@H](C(=O)N[C@@H](CCC(=O)O)C(=O)N[C@@H](CCC(=O)O)C(=O)N[C@@H](Cc1ccc(O)cc1)C(=O)O)[C@@H](C)O [conjugate formed by angiopep-2 and FITC],676 nM,can pass through BBB and aggregate in APP transgenic mice's brains in vivo,–,–,–
"conjugate formed by angiopep-2 and Cy5.5: angiopep-2 (TFFYGGSRGKRNNFKTEEY) linked N-terminally via Acp to Cy5.5; near-infrared imaging conjugate, MW 2880.24 Da",–,–,can bind to and label the amyloid deposits,20 h,aggregated in APP mice's brains
